Reference: the supplement of paper PMC10065799, “High-throughput profiling of sequence recognition by tyrosine kinases and SH2 domains using bacterial peptide display” (eLife, 2023)

Target: Hck (UniProt P08631)
Test: phosphorylation enrichment, bacterial display (enrichment ratio); higher = better substrate or ligand; peptides without Tyr show the background
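Note: 11-residue human phosphosite peptides and single-mutation variants displayed on the E. coli surface, counted by deep sequencing, each peptide's frequency after selection divided by its frequency in the unselected input library; frequency after pTyr selection over input frequency; kinase dosed for 20-30% of maximal phosphorylation in three min.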

Sequence of Hck (P08631 whole entry, looked up): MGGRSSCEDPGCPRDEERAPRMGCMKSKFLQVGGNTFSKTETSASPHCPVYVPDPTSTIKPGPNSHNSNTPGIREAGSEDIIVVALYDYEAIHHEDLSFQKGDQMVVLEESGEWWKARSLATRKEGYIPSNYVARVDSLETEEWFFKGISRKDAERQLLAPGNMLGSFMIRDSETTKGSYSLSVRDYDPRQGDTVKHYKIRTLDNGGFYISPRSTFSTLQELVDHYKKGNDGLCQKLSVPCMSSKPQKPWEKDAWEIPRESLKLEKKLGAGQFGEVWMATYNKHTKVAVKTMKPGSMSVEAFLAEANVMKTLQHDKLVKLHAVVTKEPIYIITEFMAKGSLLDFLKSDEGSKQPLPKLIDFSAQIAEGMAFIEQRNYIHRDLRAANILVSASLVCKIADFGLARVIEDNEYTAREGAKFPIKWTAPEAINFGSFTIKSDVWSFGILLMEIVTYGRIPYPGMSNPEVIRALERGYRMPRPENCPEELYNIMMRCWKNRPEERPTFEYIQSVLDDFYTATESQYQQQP

Going from KWRGQYDVAIR [BTK_Y425_K430R] to LSPNMYNSKFW [TARSL2_Y457_L461F], the phosphorylation enrichment rises from 0.451 to 1.25.

Compared with EEGRVYVYHLS [ITGAE_Y549_R552H], FHLLPYTIRAM [PARS2_Y93_V95I_YF] is higher in phosphorylation enrichment: 0.519 for the first, 0.541 for the second.

Compared with NNTFLYQLVFD [EXO1_Y284], PIYLYYLMDLS [ITGB2_Y131_D128Y] is higher in phosphorylation enrichment: 2.58 for the first, 4.44 for the second.

Going from DAVCYYRMENA [NPHS2_Y195_I192V] to PYSNSYENSLI [EPOR_Y489_P488S], the phosphorylation enrichment falls from 1.37 to 0.887.

First: FEDALYTVLHR [UNC13D_Y61_YF]
Second: ARLEYYENEKK [IRS1_Y47]
The phosphorylation enrichment of the first is higher: 9.35 for the first, 0.482 for the second.

First: WAAQRYGRELR [BAD_Y110]
Second: FENGEYIVRQG [PRKG1_Y247_I249V_YF]
The phosphorylation enrichment of the first is lower: 0.476 for the first, 0.551 for the second.

First: EQKRYYNAMKK [SCN5A_Y1495_K1493R]
Second: RFLTRYIFNRE [HLA-DQB1_Y62_V59L_YF]
The phosphorylation enrichment of the first is lower: 0.312 for the first, 0.452 for the second.

Going from AASTDYYKRGD [PDHA1_Y242] to RIFDYYSARKA [STOX1_Y858], the phosphorylation enrichment rises from 0.568 to 0.792.

Going from CTTILYNFMCN [TP53_Y234_H233L_YF] to KQFWRYFAGNL [SLC25A4_Y112], the phosphorylation enrichment falls from 0.979 to 0.449.

Going from RVLHNYLVWCV [ECEL1_Y400_R404C] to ADIETYLLEKS [MYH7_Y266], the phosphorylation enrichment falls from 0.611 to 0.551.

First: RLLVVYPWTKR [HBB_Y36_Q40K]
Second: SGRPGYCLGTR [SCO1_Y60]
The phosphorylation enrichment of the first is higher: 0.547 for the first, 0.426 for the second.

Going from SVLVPYEPPEV [TP53_Y220_V217L] to DEDYLYREELA [POR_Y575], the phosphorylation enrichment falls from 0.651 to 0.642.

Compared with SNSATYSGSVA [PDLIM5_Y382], QLHEHYKIHKE [NSMAF_Y626] is lower in phosphorylation enrichment: 0.56 for the first, 0.526 for the second.

Compared with EDGRLYAVKCS [PKMYT1_Y136_R140C], GGSDRYGSLRP [MYLK_Y846] is lower in phosphorylation enrichment: 0.792 for the first, 0.339 for the second.

Going from TWNPKYTLRSH [STRN3_Y474] to IRRQGYSHRIL [MYO3B_Y993], the phosphorylation enrichment falls from 0.492 to 0.419.

Going from PRQRRYVYYYS [PTEN_Y174_S170R] to GREEFYVHYVG [KAT8_Y90], the phosphorylation enrichment falls from 0.911 to 0.563.

Sequence VSSPKYGGDDE [TMCC2_Y473_S475G] has a phosphorylation enrichment of 0.429.

Test system: AncSZ
Test: as above

Compared with KWRGQYDVAIR [BTK_Y425_K430R], LSPNMYNSKFW [TARSL2_Y457_L461F] is higher in phosphorylation enrichment: 0.96 for the first, 1.24 for the second.

Compared with EEGRVYVYHLS [ITGAE_Y549_R552H], FHLLPYTIRAM [PARS2_Y93_V95I_YF] is lower in phosphorylation enrichment: 1.13 for the first, 0.825 for the second.

First: NNTFLYQLVFD [EXO1_Y284]
Second: PIYLYYLMDLS [ITGB2_Y131_D128Y]
The phosphorylation enrichment of the first is lower: 1.35 for the first, 4.09 for the second.

Going from DAVCYYRMENA [NPHS2_Y195_I192V] to PYSNSYENSLI [EPOR_Y489_P488S], the phosphorylation enrichment falls from 1.9 to 1.32.

First: FEDALYTVLHR [UNC13D_Y61_YF]
Second: ARLEYYENEKK [IRS1_Y47]
The phosphorylation enrichment of the first is higher: 2.96 for the first, 1.08 for the second.

Compared with WAAQRYGRELR [BAD_Y110], FENGEYIVRQG [PRKG1_Y247_I249V_YF] is higher in phosphorylation enrichment: 0.887 for the first, 0.888 for the second.

First: EQKRYYNAMKK [SCN5A_Y1495_K1493R]
Second: RFLTRYIFNRE [HLA-DQB1_Y62_V59L_YF]
The phosphorylation enrichment of the first is lower: 0.586 for the first, 1 for the second.

First: AASTDYYKRGD [PDHA1_Y242]
Second: RIFDYYSARKA [STOX1_Y858]
The phosphorylation enrichment of the first is lower: 0.83 for the first, 0.959 for the second.

Compared with CTTILYNFMCN [TP53_Y234_H233L_YF], KQFWRYFAGNL [SLC25A4_Y112] is lower in phosphorylation enrichment: 0.96 for the first, 0.944 for the second.

Compared with RVLHNYLVWCV [ECEL1_Y400_R404C], ADIETYLLEKS [MYH7_Y266] is lower in phosphorylation enrichment: 1.25 for the first, 1.04 for the second.

RLLVVYPWTKR [HBB_Y36_Q40K] and SGRPGYCLGTR [SCO1_Y60] are the same in phosphorylation enrichment: 0.735 for the first, 0.735 for the second.

Compared with SVLVPYEPPEV [TP53_Y220_V217L], DEDYLYREELA [POR_Y575] is higher in phosphorylation enrichment: 1.36 for the first, 1.61 for the second.

SNSATYSGSVA [PDLIM5_Y382] and QLHEHYKIHKE [NSMAF_Y626] are the same in phosphorylation enrichment: 0.748 for the first, 0.748 for the second.

Going from EDGRLYAVKCS [PKMYT1_Y136_R140C] to GGSDRYGSLRP [MYLK_Y846], the phosphorylation enrichment falls from 0.972 to 0.494.

First: TWNPKYTLRSH [STRN3_Y474]
Second: IRRQGYSHRIL [MYO3B_Y993]
The phosphorylation enrichment of the first is lower: 0.614 for the first, 0.733 for the second.

Going from PRQRRYVYYYS [PTEN_Y174_S170R] to GREEFYVHYVG [KAT8_Y90], the phosphorylation enrichment rises from 1.05 to 1.16.

In the case of VSSPKYGGDDE [TMCC2_Y473_S475G], the phosphorylation enrichment is reported as 0.96.

Target: FGFR1 (UniProt P11362)
Sequence (P11362 whole entry, looked up): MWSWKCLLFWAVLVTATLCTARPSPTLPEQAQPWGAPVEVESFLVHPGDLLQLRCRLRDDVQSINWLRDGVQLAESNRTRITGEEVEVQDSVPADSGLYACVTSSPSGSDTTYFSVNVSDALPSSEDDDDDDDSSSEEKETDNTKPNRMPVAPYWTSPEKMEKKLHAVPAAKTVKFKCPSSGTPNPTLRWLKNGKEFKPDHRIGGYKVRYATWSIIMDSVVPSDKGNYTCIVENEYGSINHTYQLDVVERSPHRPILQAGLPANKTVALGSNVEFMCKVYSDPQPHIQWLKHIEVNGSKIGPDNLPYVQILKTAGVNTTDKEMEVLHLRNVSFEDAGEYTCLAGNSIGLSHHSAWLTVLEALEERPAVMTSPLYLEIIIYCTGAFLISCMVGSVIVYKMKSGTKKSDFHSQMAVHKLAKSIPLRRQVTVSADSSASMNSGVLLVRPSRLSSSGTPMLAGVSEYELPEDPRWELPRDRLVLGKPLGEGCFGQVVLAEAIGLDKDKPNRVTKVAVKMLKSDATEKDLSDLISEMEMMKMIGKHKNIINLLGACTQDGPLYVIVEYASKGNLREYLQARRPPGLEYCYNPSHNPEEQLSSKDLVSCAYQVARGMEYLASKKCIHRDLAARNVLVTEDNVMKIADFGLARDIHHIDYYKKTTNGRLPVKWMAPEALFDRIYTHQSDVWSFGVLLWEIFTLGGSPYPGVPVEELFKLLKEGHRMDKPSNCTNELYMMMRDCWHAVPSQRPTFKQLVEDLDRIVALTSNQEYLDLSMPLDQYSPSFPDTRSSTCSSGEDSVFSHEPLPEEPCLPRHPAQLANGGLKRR
Test: as above

Compared with KWRGQYDVAIR [BTK_Y425_K430R], LSPNMYNSKFW [TARSL2_Y457_L461F] is higher in phosphorylation enrichment: 0.426 for the first, 1.24 for the second.

Compared with EEGRVYVYHLS [ITGAE_Y549_R552H], FHLLPYTIRAM [PARS2_Y93_V95I_YF] is lower in phosphorylation enrichment: 0.58 for the first, 0.547 for the second.

Compared with NNTFLYQLVFD [EXO1_Y284], PIYLYYLMDLS [ITGB2_Y131_D128Y] is higher in phosphorylation enrichment: 1.65 for the first, 13.6 for the second.

First: DAVCYYRMENA [NPHS2_Y195_I192V]
Second: PYSNSYENSLI [EPOR_Y489_P488S]
The phosphorylation enrichment of the first is higher: 7.53 for the first, 1.04 for the second.

Compared with FEDALYTVLHR [UNC13D_Y61_YF], ARLEYYENEKK [IRS1_Y47] is lower in phosphorylation enrichment: 2.49 for the first, 0.592 for the second.

First: WAAQRYGRELR [BAD_Y110]
Second: FENGEYIVRQG [PRKG1_Y247_I249V_YF]
The phosphorylation enrichment of the first is higher: 0.464 for the first, 0.437 for the second.

Going from EQKRYYNAMKK [SCN5A_Y1495_K1493R] to RFLTRYIFNRE [HLA-DQB1_Y62_V59L_YF], the phosphorylation enrichment rises from 0.348 to 0.408.

First: AASTDYYKRGD [PDHA1_Y242]
Second: RIFDYYSARKA [STOX1_Y858]
The phosphorylation enrichment of the first is lower: 0.592 for the first, 0.614 for the second.

First: CTTILYNFMCN [TP53_Y234_H233L_YF]
Second: KQFWRYFAGNL [SLC25A4_Y112]
The phosphorylation enrichment of the first is higher: 0.601 for the first, 0.461 for the second.

Compared with RVLHNYLVWCV [ECEL1_Y400_R404C], ADIETYLLEKS [MYH7_Y266] is lower in phosphorylation enrichment: 0.773 for the first, 0.484 for the second.

Compared with RLLVVYPWTKR [HBB_Y36_Q40K], SGRPGYCLGTR [SCO1_Y60] is lower in phosphorylation enrichment: 0.694 for the first, 0.406 for the second.

Compared with SVLVPYEPPEV [TP53_Y220_V217L], DEDYLYREELA [POR_Y575] is higher in phosphorylation enrichment: 0.505 for the first, 0.814 for the second.

First: SNSATYSGSVA [PDLIM5_Y382]
Second: QLHEHYKIHKE [NSMAF_Y626]
The phosphorylation enrichment of the first is higher: 0.432 for the first, 0.311 for the second.

Going from EDGRLYAVKCS [PKMYT1_Y136_R140C] to GGSDRYGSLRP [MYLK_Y846], the phosphorylation enrichment falls from 0.513 to 0.425.

First: TWNPKYTLRSH [STRN3_Y474]
Second: IRRQGYSHRIL [MYO3B_Y993]
The phosphorylation enrichment of the first is higher: 0.433 for the first, 0.374 for the second.

First: PRQRRYVYYYS [PTEN_Y174_S170R]
Second: GREEFYVHYVG [KAT8_Y90]
The phosphorylation enrichment of the first is higher: 0.753 for the first, 0.711 for the second.

VSSPKYGGDDE [TMCC2_Y473_S475G] showed a phosphorylation enrichment of 0.477.

Target: Jak2 (UniProt O60674)
Sequence (O60674 whole entry, looked up): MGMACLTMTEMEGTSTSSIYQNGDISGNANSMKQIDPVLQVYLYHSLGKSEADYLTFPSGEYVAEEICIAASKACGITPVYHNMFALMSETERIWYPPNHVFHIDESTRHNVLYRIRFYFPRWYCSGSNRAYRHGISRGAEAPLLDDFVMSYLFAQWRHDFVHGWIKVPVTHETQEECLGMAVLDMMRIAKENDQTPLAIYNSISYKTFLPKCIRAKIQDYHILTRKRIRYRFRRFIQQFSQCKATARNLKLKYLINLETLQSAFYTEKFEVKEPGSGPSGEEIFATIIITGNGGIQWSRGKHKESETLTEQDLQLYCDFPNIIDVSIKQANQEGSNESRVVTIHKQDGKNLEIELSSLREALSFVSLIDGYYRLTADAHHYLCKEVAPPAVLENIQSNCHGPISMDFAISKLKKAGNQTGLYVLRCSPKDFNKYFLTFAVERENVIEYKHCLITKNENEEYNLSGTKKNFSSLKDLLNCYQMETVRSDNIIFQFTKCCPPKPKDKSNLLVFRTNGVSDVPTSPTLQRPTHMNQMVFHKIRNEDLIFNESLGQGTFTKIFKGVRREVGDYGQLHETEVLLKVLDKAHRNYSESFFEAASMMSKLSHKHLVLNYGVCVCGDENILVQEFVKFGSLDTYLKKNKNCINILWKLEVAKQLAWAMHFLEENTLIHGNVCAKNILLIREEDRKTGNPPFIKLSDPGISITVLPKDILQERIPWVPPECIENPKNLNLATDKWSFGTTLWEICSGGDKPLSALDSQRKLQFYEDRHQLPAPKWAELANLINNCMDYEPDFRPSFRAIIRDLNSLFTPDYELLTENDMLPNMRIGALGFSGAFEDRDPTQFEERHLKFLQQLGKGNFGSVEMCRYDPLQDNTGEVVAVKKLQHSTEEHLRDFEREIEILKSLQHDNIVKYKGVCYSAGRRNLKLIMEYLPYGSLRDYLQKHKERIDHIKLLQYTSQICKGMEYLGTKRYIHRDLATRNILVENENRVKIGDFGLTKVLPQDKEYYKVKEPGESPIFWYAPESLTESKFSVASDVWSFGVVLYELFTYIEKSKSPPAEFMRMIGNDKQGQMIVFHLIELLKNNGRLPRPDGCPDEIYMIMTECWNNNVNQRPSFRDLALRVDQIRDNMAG
Test: as above

First: KWRGQYDVAIR [BTK_Y425_K430R]
Second: LSPNMYNSKFW [TARSL2_Y457_L461F]
The phosphorylation enrichment of the first is lower: 0.461 for the first, 1.58 for the second.

Compared with EEGRVYVYHLS [ITGAE_Y549_R552H], FHLLPYTIRAM [PARS2_Y93_V95I_YF] is lower in phosphorylation enrichment: 0.998 for the first, 0.708 for the second.

First: NNTFLYQLVFD [EXO1_Y284]
Second: PIYLYYLMDLS [ITGB2_Y131_D128Y]
The phosphorylation enrichment of the first is lower: 1.14 for the first, 8.11 for the second.

First: DAVCYYRMENA [NPHS2_Y195_I192V]
Second: PYSNSYENSLI [EPOR_Y489_P488S]
The phosphorylation enrichment of the first is higher: 6.76 for the first, 0.903 for the second.

Going from FEDALYTVLHR [UNC13D_Y61_YF] to ARLEYYENEKK [IRS1_Y47], the phosphorylation enrichment falls from 1.4 to 0.849.

Going from WAAQRYGRELR [BAD_Y110] to FENGEYIVRQG [PRKG1_Y247_I249V_YF], the phosphorylation enrichment falls from 0.782 to 0.685.

Going from EQKRYYNAMKK [SCN5A_Y1495_K1493R] to RFLTRYIFNRE [HLA-DQB1_Y62_V59L_YF], the phosphorylation enrichment rises from 0.605 to 1.29.

Going from AASTDYYKRGD [PDHA1_Y242] to RIFDYYSARKA [STOX1_Y858], the phosphorylation enrichment rises from 0.811 to 1.16.

Compared with CTTILYNFMCN [TP53_Y234_H233L_YF], KQFWRYFAGNL [SLC25A4_Y112] is higher in phosphorylation enrichment: 0.957 for the first, 1.04 for the second.

Going from RVLHNYLVWCV [ECEL1_Y400_R404C] to ADIETYLLEKS [MYH7_Y266], the phosphorylation enrichment falls from 1.42 to 0.871.

Compared with RLLVVYPWTKR [HBB_Y36_Q40K], SGRPGYCLGTR [SCO1_Y60] is higher in phosphorylation enrichment: 0.475 for the first, 0.58 for the second.

First: SVLVPYEPPEV [TP53_Y220_V217L]
Second: DEDYLYREELA [POR_Y575]
The phosphorylation enrichment of the first is higher: 1.32 for the first, 1.25 for the second.

First: SNSATYSGSVA [PDLIM5_Y382]
Second: QLHEHYKIHKE [NSMAF_Y626]
The phosphorylation enrichment of the first is lower: 0.48 for the first, 0.641 for the second.

Compared with EDGRLYAVKCS [PKMYT1_Y136_R140C], GGSDRYGSLRP [MYLK_Y846] is lower in phosphorylation enrichment: 0.861 for the first, 0.716 for the second.

First: TWNPKYTLRSH [STRN3_Y474]
Second: IRRQGYSHRIL [MYO3B_Y993]
The phosphorylation enrichment of the first is higher: 0.524 for the first, 0.475 for the second.

Going from PRQRRYVYYYS [PTEN_Y174_S170R] to GREEFYVHYVG [KAT8_Y90], the phosphorylation enrichment rises from 0.979 to 1.02.

For VSSPKYGGDDE [TMCC2_Y473_S475G], the phosphorylation enrichment was 0.631.
